Test results from paper PMC7603204.
Positions count from the first letter of the chain named. Names and notes keep the numbering of the source.

B1: E. coli AlaRS (Escherichia coli K-12; C666A/D551Y) (protein)
chain: SKSTAEIRQAFLDFFHSKGHQVVASSSLVPHNDPTLLFTNAGMNQFKDVFLGLDKRNYSRATTSQRCVRAGGKHNDLENVGYTARHHTFFEMLGNFSFGDYFKHDAIQFAWELLTSEKWFALPKERLWVTVYESDDEAYEIWEKEVGIPRERIIRIGDNKGAPYASDNFWQMGDTGPCGPCTEIFYDHGDHIWGGPPGSPEEDGDRYIEIWNIVFMQFNRQADGTMEPLPKPSVDTGMGLERIAAVLQHVNSNYDIDLFRTLIQAVAKVTGATDLSNKSLRVIADHIRSCAFLIADGVMPSNENRGYVLRRIIRRAVRHGNMLGAKETFFYKLVGPLIDVMGSAGEDLKRQQAQVEQVLKTEEEQFARTLERGLALLDEELAKLSGDTLDGETAFRLYDTYGFPVDLTADVCRERNIKVDEAGFEAAMEEQRRRAREASGFGADYNAMIRVDSASEFKGYDHLELNGKVTALFVDGKAVDAINAGQEAVVVLDQTPFYAESGGQVGDKGELKGANFSFAVEDTQKYGQAIGHIGKLAAGSLKVGDAVQAYVDEARRARIRLNHSATHLMHAALRQVLGTHVSQKGSLVNDKVLRFDFSHNEAMKPEEIRAVEDLVNTQIRRNLPIETNIMDLEAAKAKGAMALFGEKYDERVRVLSMGDFSTELAGGTHASRTGDIGLFRIISESGTAAGVRRIEAVTGEGAIATVHADSDRLSEVAHLLKGDSNNLADKVRSVLERTRQLEKELQQLKEQAAAQESANLSSKAIDVNGVKLLVSELSGVEPKMLRTMVDDLKNQLGSTIIVLATVVEGKVSLIAGVSKDVTDRVKAGELIGMVAQQVGGKGGGRPDMAQAGGTDAAALPAALASVKGWVSAKLQ
B2: E. coli AlaRS (Escherichia coli K-12; R561C) (protein)
chain: B1 chain with Y550D, R560C, A665C

Substrate: C[C@H](N)C(=O)O
Assay: purified protein
Conditions: 2 mM ATP, 2 mM PPi, 10 mM MgCl2, 30 mM KCl, 2 mM NaF, pH 7.2, 37 °C, amino acid activation

Protein | Km [µM] | kcat [s⁻¹] | kcat/Km [M⁻¹ s⁻¹]
B1 | 217 ± 100 | 18.3 | 84300
B2 | 203 ± 68 | 21.8 | 107000
